Test results from patent US20200247891A1 (University of California, published 2020).

Target: αvβ8 integrin on β8-transfected SW480 cells and β8-transfected SNB-19 cells (UniProt P26012 43-769; P06756 31-1048)
Test: cell-based or functional assay

Sequence of αvβ8 integrin on β8-transfected SW480 cells and β8-transfected SNB-19 cells (P26012 43-769, chain 1 of 2): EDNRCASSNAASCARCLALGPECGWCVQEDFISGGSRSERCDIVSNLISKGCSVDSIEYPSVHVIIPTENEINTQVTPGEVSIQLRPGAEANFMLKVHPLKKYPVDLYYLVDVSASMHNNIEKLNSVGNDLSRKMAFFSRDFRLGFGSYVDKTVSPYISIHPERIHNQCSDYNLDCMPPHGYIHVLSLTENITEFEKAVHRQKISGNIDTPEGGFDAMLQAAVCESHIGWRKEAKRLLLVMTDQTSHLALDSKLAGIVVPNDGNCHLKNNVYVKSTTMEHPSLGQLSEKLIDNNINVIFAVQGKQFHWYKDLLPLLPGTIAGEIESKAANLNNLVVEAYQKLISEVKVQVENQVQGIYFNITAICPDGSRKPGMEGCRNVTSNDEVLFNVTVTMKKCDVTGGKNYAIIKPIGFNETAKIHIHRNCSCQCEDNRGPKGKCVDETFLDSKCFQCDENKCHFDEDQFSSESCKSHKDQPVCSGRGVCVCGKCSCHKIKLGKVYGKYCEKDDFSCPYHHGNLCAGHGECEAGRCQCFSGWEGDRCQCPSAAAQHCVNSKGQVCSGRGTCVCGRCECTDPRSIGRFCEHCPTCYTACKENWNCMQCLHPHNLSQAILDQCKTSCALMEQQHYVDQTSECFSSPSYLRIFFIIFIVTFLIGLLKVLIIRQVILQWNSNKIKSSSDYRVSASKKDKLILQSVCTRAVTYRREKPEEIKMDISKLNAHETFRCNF
Sequence of αvβ8 integrin on β8-transfected SW480 cells and β8-transfected SNB-19 cells (P06756 31-1048, chain 2 of 2): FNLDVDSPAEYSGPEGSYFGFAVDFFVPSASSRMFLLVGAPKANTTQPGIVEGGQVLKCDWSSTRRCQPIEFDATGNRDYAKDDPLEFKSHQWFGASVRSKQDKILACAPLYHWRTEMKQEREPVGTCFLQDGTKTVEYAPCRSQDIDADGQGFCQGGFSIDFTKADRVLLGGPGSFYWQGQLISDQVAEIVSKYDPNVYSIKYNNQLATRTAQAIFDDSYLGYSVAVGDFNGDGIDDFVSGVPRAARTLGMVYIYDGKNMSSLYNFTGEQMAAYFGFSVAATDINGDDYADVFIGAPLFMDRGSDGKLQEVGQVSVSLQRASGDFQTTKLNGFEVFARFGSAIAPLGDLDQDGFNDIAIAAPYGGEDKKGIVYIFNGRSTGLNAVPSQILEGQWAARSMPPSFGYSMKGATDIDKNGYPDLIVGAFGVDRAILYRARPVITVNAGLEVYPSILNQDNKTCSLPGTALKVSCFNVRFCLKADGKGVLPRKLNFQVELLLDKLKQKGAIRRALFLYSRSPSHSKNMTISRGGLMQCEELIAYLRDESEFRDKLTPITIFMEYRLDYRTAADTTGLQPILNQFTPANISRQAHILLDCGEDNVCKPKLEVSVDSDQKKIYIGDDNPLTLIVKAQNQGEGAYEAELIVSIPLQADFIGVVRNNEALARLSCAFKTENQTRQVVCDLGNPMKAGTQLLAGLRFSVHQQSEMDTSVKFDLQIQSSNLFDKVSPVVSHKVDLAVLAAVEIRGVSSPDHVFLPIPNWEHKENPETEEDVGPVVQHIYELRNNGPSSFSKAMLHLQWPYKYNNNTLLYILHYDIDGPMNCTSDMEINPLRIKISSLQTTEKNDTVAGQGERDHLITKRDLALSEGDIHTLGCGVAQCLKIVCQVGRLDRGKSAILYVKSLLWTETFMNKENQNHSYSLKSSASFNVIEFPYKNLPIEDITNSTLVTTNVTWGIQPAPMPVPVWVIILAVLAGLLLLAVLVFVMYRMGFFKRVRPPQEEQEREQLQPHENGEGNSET

- IC50 for inhibiting TGFβ activation: < 5 nM
B1: ADWA-11 (antibody, V domains shown)
VH: EVQLQQSGAELVRPGAFVKLSCKASGFNIKDYYMNWVLQRPEQGLEWIGWIDPDNGNTIYDPKFQGKASITADTSSNTAYLQLSSLTSEDTAVYYCARRLLMDYWGQGTSVTVSS
VL: DIVMTQAAPSVPVTPGESVSISCRSTKSLLHFNGNTYLFWFLQRPGQSPQRLIYYMSNLASGVPDRFSGRGSGTDFTLRISRVEAEDVGVYYCMQSLEYPFTFGTGTKLEIK
